Measurements as given in article PMC3811882, “The PR/SET Domain Zinc Finger Protein Prdm4 Regulates Gene Expression in Embryonic Stem Cells but Plays a Nonessential Role in the Developing Mouse Embryo”.

Target: Prdm4-ZFD (UniProt Q80V63 582-760)
Test: EMSA; EMSA as previously described (ref 41); 0.8% agarose gels for nuclear complexes, 5% acrylamide for purified His-tagged Prdm4; buffer, salt, pH and temperature not given
Settings: protein: recombinant; tags: His-HA; 5' overhang 2 nt (GG) on each strand

Chain of Prdm4-ZFD (Q80V63 582-760): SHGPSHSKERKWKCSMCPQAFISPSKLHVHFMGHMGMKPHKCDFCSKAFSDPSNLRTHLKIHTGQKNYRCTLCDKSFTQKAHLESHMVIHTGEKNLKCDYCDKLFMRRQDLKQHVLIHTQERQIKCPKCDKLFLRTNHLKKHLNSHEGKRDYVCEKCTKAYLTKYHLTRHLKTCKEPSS

Row | Binder | binding result
1 | wild-type Bahcc1 (dsDNA) DNA 1: GGCCTGGGTCGGCCCGCGGGGATCCTGGAAACCGTCCCCGGTTTATCTCCTT DNA 2: GGAAGGAGATAAACCGGGGACGGTTTCCAGGATCCCCGCGGGCCGACCCAGG | binds
2 | ΔGAAAC Bahcc1 (dsDNA) DNA 1: GGCCTGGGTCGGCCCGCGGGGATCCTGTCCCACGTCCCCGGTTTATCTCCTT DNA 2: GGAAGGAGATAAACCGGGGACGTGGGACAGGATCCCCGCGGGCCGACCCAGG | no binding
